Tests used:
Details in all cases: protein: recombinant; tags: C-terminal 6xHis; label: 5'-biotin; single strand
rAB-Elavl [1] = target: T1, rAB-Elavl (Acinetobacter baumannii, UniProt D0CAL6 1-86); test: AlphaScreen saturation (probe length series); EC50 not converged; legend: minimal length for binding is 19 nt; AlphaScreen: 25 mM HEPES pH 7.4, 100 mM NaCl, 0.1% BSA, RT; REMSA: 20 mM HEPES pH 7.5, 50 mM KCl, 450 uM BSA, 0.25% glycerol, RT (gel at 4 C); NMR: 20 mM HEPES
T1 sequence: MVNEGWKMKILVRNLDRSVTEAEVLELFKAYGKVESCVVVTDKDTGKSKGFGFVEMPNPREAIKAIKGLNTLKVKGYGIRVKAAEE

rAB-Elavl [2] = target: T1, rAB-Elavl; test: AlphaScreen saturation; EC50, probe titrated, 500 nM protein; conflicts with 35.62 nM in Fig 8C; AlphaScreen: 25 mM HEPES pH 7.4, 100 mM NaCl, 0.1% BSA, RT; REMSA: 20 mM HEPES pH 7.5, 50 mM KCl, 450 uM BSA, 0.25% glycerol, RT (gel at 4 C); NMR: 20 mM HEPES
rAB-Elavl [3] = target: T1, rAB-Elavl; test: HTRF-FRET saturation; EC50; AlphaScreen: 25 mM HEPES pH 7.4, 100 mM NaCl, 0.1% BSA, RT; REMSA: 20 mM HEPES pH 7.5, 50 mM KCl, 450 uM BSA, 0.25% glycerol, RT (gel at 4 C); NMR: 20 mM HEPES
rAB-Elavl [4] = target: T1, rAB-Elavl; test: AlphaScreen time-course kinetics (koff/kon); koff 0.02687 min-1; kon printed as 2.035 M-1 min-1 (exponent apparently lost); AlphaScreen: 25 mM HEPES pH 7.4, 100 mM NaCl, 0.1% BSA, RT; REMSA: 20 mM HEPES pH 7.5, 50 mM KCl, 450 uM BSA, 0.25% glycerol, RT (gel at 4 C); NMR: 20 mM HEPES
rAB-Elavl [5] = target: T1, rAB-Elavl; test: AlphaScreen saturation (probe length series); EC50; unit implied; named ARE pos 29 nt in text; AlphaScreen: 25 mM HEPES pH 7.4, 100 mM NaCl, 0.1% BSA, RT; REMSA: 20 mM HEPES pH 7.5, 50 mM KCl, 450 uM BSA, 0.25% glycerol, RT (gel at 4 C); NMR: 20 mM HEPES
rAB-Elavl [6] = target: T1, rAB-Elavl; test: HTRF-FRET saturation; EC50; unit implied; legend: not well bound; AlphaScreen: 25 mM HEPES pH 7.4, 100 mM NaCl, 0.1% BSA, RT; REMSA: 20 mM HEPES pH 7.5, 50 mM KCl, 450 uM BSA, 0.25% glycerol, RT (gel at 4 C); NMR: 20 mM HEPES
rAB-Elavl [7] = target: T1, rAB-Elavl; test: AlphaScreen saturation; EC50, probe titrated, 500 nM protein; AlphaScreen: 25 mM HEPES pH 7.4, 100 mM NaCl, 0.1% BSA, RT; REMSA: 20 mM HEPES pH 7.5, 50 mM KCl, 450 uM BSA, 0.25% glycerol, RT (gel at 4 C); NMR: 20 mM HEPES
rAB-Elavl [8] = target: T1, rAB-Elavl; test: AlphaScreen saturation (probe length series); EC50; unit implied; AlphaScreen: 25 mM HEPES pH 7.4, 100 mM NaCl, 0.1% BSA, RT; REMSA: 20 mM HEPES pH 7.5, 50 mM KCl, 450 uM BSA, 0.25% glycerol, RT (gel at 4 C); NMR: 20 mM HEPES

AUUAUUUAUUA (ssRNA) [ARE pos 11]: no binding (rAB-Elavl [1]).

With AUUAUUUAUUAUUUAUUUAUUAUUUA (ssRNA) [ARE pos] the “apparent K (half saturation)” value (rAB-Elavl [2]) was 0.5 nM, the “apparent K (half saturation)” value (rAB-Elavl [3]) was 35.1 nM and the Kd (rAB-Elavl [4]) was 13.2 nM. The “apparent K (half saturation)” value (rAB-Elavl [5]) was 35.6 nM.

For ACCACCCACCACCCACCCACCACCCA (ssRNA) [ARE neg], the “apparent K (half saturation)” value (rAB-Elavl [6]) was 946 nM and the “apparent K (half saturation)” value (rAB-Elavl [7]) was 257 nM.

AUUAUUUAUUAUUUAUUUA (ssRNA) [ARE pos 19] was tested, and the “apparent K (half saturation)” value (rAB-Elavl [8]) was 64.8 nM.

Source: paper PMC9313427, “Identification and Characterization of an RRM-Containing, RNA Binding Protein in Acinetobacter baumannii”
